The target in assay [1] is T1, Tencon25.
T1 construct: Artificial FN3 domain (centyrin scaffold) with no target specificity; It was the immunogen; also called Tencon-T25
T1 chain: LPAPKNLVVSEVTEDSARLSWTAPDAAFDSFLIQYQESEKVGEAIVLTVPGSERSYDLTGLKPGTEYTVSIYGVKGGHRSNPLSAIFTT
The assay is described as follows: flow cytometry, CAR-electroporated T cells stained with 50 nM APC labeled Tencon-25. As to the method: For AS7B16 and AS7B82, binding was assessed using flow cytometry. Briefly, Twenty-four hours post-electroporation, cells were centrifuged at 100×g for 10 minutes and washed two times in FACS stain buffer (BD Biosciences Catalog#554657). Cells were incubated with either APC labeled […] or AF647 labeled anti-EGFR 83v2 FN3 domains at a final concentration of 50 nM at 4° C. for 1 hour. The labeled cells were washed twice in FACS stain buffer and re-suspended in 200 uL of the same buffer. Data was collected using a BD LSRFortessa flow cytometer and analysis was performed using Flowjo software. All CARTs tested, AS7B16, AS7B82 and AS7B91 bind to both FN3 domains tested, Tencon-T25 and EGFR 83v2. Binding of CARTs occurs in the following manner: ASS7B91>AS7B82>AS7B16.

Assay [2] concerns the target T2, FN3 domain A3 specific for human cMET.
T2 construct: it carries a C-terminal His tag
T2 chain: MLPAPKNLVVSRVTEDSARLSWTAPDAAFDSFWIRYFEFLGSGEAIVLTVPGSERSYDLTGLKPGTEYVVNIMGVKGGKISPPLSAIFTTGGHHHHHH
The assay is described as follows: ELISA, coated FN3 domain in dose-response, supernatant at 1 µg/ml, luminescence. As to the method: (§1) Three plates were coated with dose-response curves of, FN3 domain A3 specific for human cMET (SEQ ID NO: 31), 83v2-ABD specific for human EGFR with an albumin binding domain (SEQ ID NO: 32), tencon 25 that has no specificity (SEQ ID NO: 28), or negative control protein, all at 50 μL/well in 50 mM PBS. Plates were incubated over night at 4° C. Supernatants were dumped from plates and 200 μL/well Superblock was added to block plates for 1 hour at RT. […] Plates were incubated for 1 hour at RT. Plates were washed 3× with TBS-T. Secondary antibodies (HRP-goat anti-rabbit, rat or mouse) were prepared at 1:10,000 in Superblock and added to the plates. Plates were incubated for 1 hour at RT. Plates were washed 3× with TBS-T. 50 μL/well POD reagent (prepared according to Sigma-Aldrich manufacturer's instructions and incubated in the dark at RT for at least 30 minutes prior to use) was added to plates. After 3-5 minute incubation, protected from light, the M5 was used to read luminescence. The results were plotted in Prism (FIGS. 1A-C) using a Log/Log transformation, and then a four-parameter curve fit. […] It should be noted that there was no non-specific binding to negative control antibody. The mouse version of the antibody, AS7B91, appeared to have binding characteristics more similar to the original rabbit hybridoma antibody.

In assay [3] the target is T1, Tencon25. The description is as above. Here is the method:
as §1

In assay [4] the target is T3, 83v2-ABD specific for human EGFR with an albumin binding domain.
T3 chain: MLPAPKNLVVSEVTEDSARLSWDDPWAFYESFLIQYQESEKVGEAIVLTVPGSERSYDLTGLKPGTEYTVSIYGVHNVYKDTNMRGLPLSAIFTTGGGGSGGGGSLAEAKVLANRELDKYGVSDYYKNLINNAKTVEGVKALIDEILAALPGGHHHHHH
The assay is described as above. Here is the method: as §1

Assay [5] deals with anti-BCMA CARTyrins expressed on the surface of primary T cells. Kind of assay: cell-based or functional assay.
Assay [6] deals with T1, Tencon25. The assay is described as follows: flow cytometry on CAR-electroporated primary T cells, labeled Tencon25.

B1: AS7B16 scFv CAR, L-H orientation (scFv)
chain: NIMMTQSPSSLAVSAGEKVTMNCKSSQSVLFGSKQKNYLAWYQQKPGQSPKLLIYWASTRESGVPDRFTGSGSGTDFILTISNVQAEDLAVYYCHQYLSLFTFGSGTKLEIKGGGGSGGGGSGGGGSGGGGSQVTLKESGPGILQPSQTLSLTCSFSGFSLNTSGTGVGWIRQPSGKGLEWLAHIWWDDDKGYNPALKSRLTISKNTSSNLVFLKIASVDTADTATYYCVRIKGRMDYWGQGTSVTVSSTTTPAPRPPTPAPTIASQPLSLRPEACRPAAGGAVHTRGLDFACDIYIWAPLAGTCGVLLLSLVITLYCKRGRKKLLYIFKQPFMRPVQTTQEEDGCSCRFPEEEEGGCELRVKFSRSADAPAYKQGQNQLYNELNLGRREEYDVLDKRRGRDPEMGGKPRRKNPQEGLYNELQKDKMAEAYSEIGMKGERRRGKGHDGLYQGLSTATKDTYDALHMQALPPR
notes: Chimeric antigen receptor on mRNA-electroporated human pan T cells; also called AS7B16 L2H; AS7B16 L-H CAR ECD
For the molecule B1, the binding result in the assay with Tencon25 [1] is reported as “binds”.

B2: AS7B91 (antibody, mouse IgG2a, kappa)
heavy: QSLEESGGRLVTPGTPLTLTCTVSGIDLSTSVMGWVRQAPGKGLESIGFIYTNVNTYYASWAKGRFTISRTSTTVDLKITSPTTGDTATYFCARAVYAGAMDLWGQGTLVTVSSAKTTAPSVYPLAPVCGDTTGSSVTLGCLVKGYFPEPVTLTWNSGSLSSGVHTFPAVLQSDLYTLSSSVTVTSSTWPSQSITCNVAHPASSTKVDKKIEPRGPTIKPCPPCKCPAPNLLGGPSVFIFPPKIKDVLMISLSPIVTCVVVDVSEDDPDVQISWFVNNVEVHTAQTQTHREDYNSTLRVVSALPIQHQDWMSGKEFKCKVNNKDLPAPIERTISKPKGSVRAPQVYVLPPPEEEMTKKQVTLTCMVTDFMPEDIYVEWTNNGKTELNYKNTEPVLDSDGSYFMYSKLRVEKKNWVERNSYSCSVVHEGLHNHHTTKSFSRTPGK
light: DVVMTQTPASVSGPVGGTVTIKCQASERIYSNLAWYQQKPGQPPKLLIYKASTLASGVSSRFKGSGSGTEFTLTIRDLECADAATYSCQYTSYGSGYVGTFGGGTEVVVEGRADAAPTVSIFPPSSEQLTSGGASVVCFLNNFYPKDINVKWKIDGSERQNGVLNSWTDQDSKDSTYSMSSTLTLTKDEYERHNSYTCEATHKTSTSPIVKSFNRNEC
notes: also called a-Centyrin
Take B2: the binding result (in assay [2]; with Tencon25 [3]; in assay [4]) was “binds” throughout. The molecule further gave an increase in cell number compared to unstimulated cells in assay [5] of 11 fold.

B3: AS7B90 (antibody, rat IgG1)
heavy: QSLEESGGRLVTPGTPLTLTCTVSGIDLSTSVMGWVRQAPGKGLESIGFIYTNVNTYYASWAKGRFTISRTSTTVDLKITSPTTGDTATYFCARAVYAGAMDLWGQGTLVTVSSAETTAPSVYPLAPGTALKSNSMVTLGCLVKGYFPEPVTVTWNSGALSSGVHTFPAVLQSGLYTLTSSVTVPSSTWPSQTVTCNVAHPASSTKVDKKIVPRNCGGDCKPCICTGSEVSSVFIFPPKPKDVLTITLTPKVTCVVVDISQDDPEVHFSWFVDDVEVHTAQTRPPEEQFNSTFRSVSELPILHQDWLNGRTFRCKVTSAAFPSPIEKTISKPEGRTQVPHVYTMSPTKEEMTQNEVSITCMVKGFYPPDIYVEWQMNGQPQENYKNTPPTMDTDGSYFLYSKLNVKKEKWQQGNTFTCSVLHEGLHNHHTEKSLSHSPGK
light: DVVMTQTPASVSGPVGGTVTIKCQASERIYSNLAWYQQKPGQPPKLLIYKASTLASGVSSRFKGSGSGTEFTLTIRDLECADAATYSCQYTSYGSGYVGTFGGGTEVVVEGRADAAPTVSIFPPSSEQLASGGASVVCFINKFYPKDISVKWKIDGSERQNDVLNSVTDQDSKDSTYSMSSTLTLTKADYERHNLYTCEVVHKTSASPVVKSFNRNEC
Take B3: the binding result (in assay [2]; in the assay with Tencon25 [3]; in assay [4]) was “binds” each time.

B4: AS7B91 scFv H-L CAR (scFv)
chain: QSLEESGGRLVTPGTPLTLTCTVSGIDLSTSVMGWVRQAPGKGLESIGFIYTNVNTYYASWAKGRFTISRTSTTVDLKITSPTTGDTATYFCARAVYAGAMDLWGQGTLVTVSSGGGGSGGGGSGGGGSGGGGSDVVMTQTPASVSGPVGGTVTIKCQASERIYSNLAWYQQKPGQPPKLLIYKASTLASGVSSRFKGSGSGTEFTLTIRDLECADAATYSCQYTSYGSGYVGTFGGGTEVVVEGTTTPAPRPPTPAPTIASQPLSLRPEACRPAAGGAVHTRGLDFACDIYIWAPLAGTCGVLLLSLVITLYCKRGRKKLLYIFKQPFMRPVQTTQEEDGCSCRFPEEEEGGCELRVKFSRSADAPAYKQGQNQLYNELNLGRREEYDVLDKRRGRDPEMGGKPRRKNPQEGLYNELQKDKMAEAYSEIGMKGERRRGKGHDGLYQGLSTATKDTYDALHMQALPPR
notes: Chimeric antigen receptor on mRNA-electroporated human pan T cells; also called BAR-T variant 2; AS7B91 H-L CAR ECD
For the molecule B4, the binding result in the assay with Tencon25 [6] was “binds”.

B5: AS7B91 scFv L-H CAR (scFv)
chain: DVVMTQTPASVSGPVGGTVTIKCQASERIYSNLAWYQQKPGQPPKLLIYKASTLASGVSSRFKGSGSGTEFTLTIRDLECADAATYSCQYTSYGSGYVGTFGGGTEVVVEGGGGGSGGGGSGGGGSGGGGSLEESGGRLVTPGTPLTLTCTVSGIDLSTSVMGWVRQAPGKGLESIGFIYTNVNTYYASWAKGRFTISRTSTTVDLKITSPTTGDTATYFCARAVYAGAMDLWGQGTLVTVSSTTTPAPRPPTPAPTIASQPLSLRPEACRPAAGGAVHTRGLDFACDIYIWAPLAGTCGVLLLSLVITLYCKRGRKKLLYIFKQPFMRPVQTTQEEDGCSCRFPEEEEGGCELRVKFSRSADAPAYKQGQNQLYNELNLGRREEYDVLDKRRGRDPEMGGKPRRKNPQEGLYNELQKDKMAEAYSEIGMKGERRRGKGHDGLYQGLSTATKDTYDALHMQALPPR
notes: Chimeric antigen receptor on mRNA-electroporated human pan T cells; also called BAR-T variant 1; AS7B91 L-H CAR ECD
With B5, in the assay with Tencon25 [6], the binding result is listed as “binds”.

B6: AS7B16 scFv CAR, H-L orientation (scFv)
chain: QVTLKESGPGILQPSQTLSLTCSFSGFSLNTSGTGVGWIRQPSGKGLEWLAHIWWDDDKGYNPALKSRLTISKNTSSNLVFLKIASVDTADTATYYCVRIKGRMDYWGQGTSVTVSSGGGGSGGGGSGGGGSGGGGSNIMMTQSPSSLAVSAGEKVTMNCKSSQSVLFGSKQKNYLAWYQQKPGQSPKLLIYWASTRESGVPDRFTGSGSGTDFILTISNVQAEDLAVYYCHQYLSLFTFGSGTKLEIKTTTPAPRPPTPAPTIASQPLSLRPEACRPAAGGAVHTRGLDFACDIYIWAPLAGTCGVLLLSLVITLYCKRGRKKLLYIFKQPFMRPVQTTQEEDGCSCRFPEEEEGGCELRVKFSRSADAPAYKQGQNQLYNELNLGRREEYDVLDKRRGRDPEMGGKPRRKNPQEGLYNELQKDKMAEAYSEIGMKGERRRGKGHDGLYQGLSTATKDTYDALHMQALPPR
notes: Chimeric antigen receptor on mRNA-electroporated human pan T cells; also called AS7B16 H2L; AS7B16 H-L CAR ECD
With B6, the binding result with Tencon25 [1] is on record as “binds”.

For the origin of these results see patent US20190016789A1 (Janssen / Centocor, published 2019).
